This is an account of results in patent US12201699, “Compositions and methods for promoting homology directed repair” (Editas Medicine, Inc.).

The target in this series is Tet Repressor (TetR) (UniProt P04483 P04483:1-207). Put plainly: EMSA; lacks Tet operator; 500 nM TetR, 50 nM DNA, 300 mM NaCl, pH 7.7. The note with it: chain copies: 2 (inferred). From the text: The nucleotide sequence to which the Tet Repressor protein binds, typically consists of several repeats (5 or more) of the Tet Operator (TetO)19 base pair sequence, each followed by a 17 bp spacer. Here, we evaluated the binding of the Tet repressor protein to several Tet Operator sequence-containing variants that included spacer sequences of differing sizes, or no spacer sequences. Specifically, we investigated […] To test the binding capacity of the Tet Operator sequence-containing variants experimentally, 500 nM of recombinant TetR protein (Imgen BioSciences, Inc.; Cat. No. P-1002-0.5 mg) was incubated with 50 nM of template DNA in binding buffer (50 mM HEPES, 20% glycerol, 300 mM NaCl, pH 7.7) and protein binding to the Tet Operator sequence-containing variants was analyzed using an electrophoretic mobility shift assay using a 10% polyacrylamide gel (FIG. 8B).
Chain of Tet Repressor (TetR) (P04483 whole entry, one chain of several): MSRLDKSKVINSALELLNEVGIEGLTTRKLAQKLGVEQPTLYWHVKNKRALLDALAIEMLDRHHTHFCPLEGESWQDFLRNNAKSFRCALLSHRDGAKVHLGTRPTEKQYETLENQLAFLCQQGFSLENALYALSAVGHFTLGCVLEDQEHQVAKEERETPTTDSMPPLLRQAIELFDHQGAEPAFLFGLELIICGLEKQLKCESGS
In general terms: A gel shift assay detects complexes by their altered migration in electrophoresis.

B1: ssODN-109 (control) (ssDNA)
DNA: AACAGACACCATGGTGCATCTGACTCGTGTGGAGAAGTCGGCCGTTACTGCCCTGCAGGGCAAGCTTAACGTGGATGAAGTTCGTGGTGAGGCCCTGGGCAGGTTGGTA
As for B1, the binding result is listed as “no binding”.

B2: ssODN-179 (control) (ssDNA)
DNA: TGCTTCTGACACAACTGTGTTCACTAGCAACCTCAAACAGACACCATGGTGCATCTGACTCGTGTGGAGAAGTCGGCCGTTACTGCCCTGCAGGGCAAGCTTAACGTGGATGAAGTTCGTGGTGAGGCCCTGGGCAGGTTGGTATCAAGGTTACAAGACAGGTTTAAGGAGACCAATAG
For the molecule B2, the binding result is given as “no binding”.
